Measurements taken from article PMC7347513 (Cancer Immunology, Immunotherapy : CII, 2020).

Key:
[1] = molecular target: T1, HLA A*0201 presenting HCMV pp65 peptide […] on cells (human HLA-A*02:01 and B2M; HCMV pp65 …, strain); test: flow cytometry on cells; details: one partner purified
T1 construct: copies: + +

[2] = molecular target: T2, biotinylated HLA A*0201/HCMV pp65 peptide […] complex (human HLA-A*02:01 and B2M; HCMV pp65 …, strain, biotin (in vivo, BirA, AviTag)); test: ELISA; details: both partners purified
T2 construct: copies: + +

[3] = molecular target: T3, biotinylated HLA A*0101/HCMV pp65 peptide […] complex (human HLA-A*01:01 and B2M; HCMV pp65 …, strain, biotin (in vivo, BirA, AviTag)); test: ELISA; details: both partners purified
T3 construct: copies: + +

[4] = molecular target: T4, HLA A*0101 presenting HCMV pp65 peptide […] on cells (human HLA-A*01:01 and B2M; HCMV pp65 …, strain); test: flow cytometry on cells; details: one partner purified
T4 construct: copies: + +

[5] = molecular target: T5, HLA A*0201 presenting the HCMV pp65 peptide […], on cells (human HLA-A*02:01 and B2M; HCMV pp65 …, strain); test: flow cytometry on cells; details: one partner purified
T5 construct: copies: + +

[6] = molecular target: T6, HLA A*0201 on MRC-5 cells loaded with control peptide 13 (…, Trypanosoma cruzi KMP-11) (human HLA-A*02:01 and B2M; Trypanosoma …, strain); test: flow cytometry on cells; details: one partner purified
T6 construct: copies: + +

[7] = molecular target: T7, HLA B*0702 presenting HCMV pp65 peptide … on cells (Homo sapiens HLA-B*07:02/B2M; HCMV pp65 …, strain); test: flow cytometry on cells; details: one partner purified
T7 construct: copies: + +

[8] = molecular target: T8, biotinylated HLA B*0702/HCMV pp65 peptide … complex (Homo sapiens HLA-B*07:02/B2M; HCMV pp65 …, strain, biotin (in vivo, BirA, AviTag)); test: ELISA; details: both partners purified
T8 construct: copies: + +

[9] = molecular target: T9, biotinylated HLA B*3501/HCMV pp65 peptide … complex (Homo sapiens HLA-B*35:01 and B2M; HCMV …, strain, biotin (in vivo, BirA, AviTag)); test: ELISA; details: both partners purified
T9 construct: copies: + +

B1: biotinylated Fab A11 (Fab, V domains shown)
VH: EVQLVQSGAEVKRPGASVKVSCKASGYTFTSYGIGWVRQAPGQGLEWMGWISAYSGNTNYAQNFQGRITMTTDTSTSTAYMELRSLRSDDTAVYYCARDFGKWDLPMYGMDVWGQGTTVTVSS
VL: QSVLTQPPSVSVAPGGTARISCGGNNIGTKNVHWYQQKPGQAPVLVMYYNSDRPAGIPERFSGSNSGNTATLTITRVEPGDEADYYCQVWDDRRDHYVFGTGTEVTVL
notes: source: E. coli TG1, biotinylated in vivo, purified (IMAC, Talon beads)
B1: binds [1].

B2: Fab A11 (Fab, V domains shown)
VH: EVQLVQSGAEVKRPGASVKVSCKASGYTFTSYGIGWVRQAPGQGLEWMGWISAYSGNTNYAQNFQGRITMTTDTSTSTAYMELRSLRSDDTAVYYCARDFGKWDLPMYGMDVWGQGTTVTVSS
VL: QSVLTQPPSVSVAPGGTARISCGGNNIGTKNVHWYQQKPGQAPVLVMYYNSDRPAGIPERFSGSNSGNTATLTITRVEPGDEADYYCQVWDDRRDHYVFGTGTEVTVL
notes: source: E. coli TG1, purified (IMAC, Talon beads)
B2: binds [2].

B3: Fab A9 (Fab, V domains shown)
VH: EVQLVQSGAEVRNPGASVKVSCKASGYTFTSHGINWLRQAPGQGLEWMGWISAYSGNTNYAQNLQDRVSMTTDTSTSTAYMELRSLRSDDTAVYYCARDFGKWDLPMYGMDVWGQGTTVTVSS
VL: QSVLTQPPSVSAAPGQRVTISCSGSSSDIGKSGKNYVAWYQQLPGMAPKLLIHDTIKRPSGIPDRFSASKSGTSATLDITGLQTGDEGDYYCGTWNNNLSAYVFGTGTTITVL
notes: as for B2
B3: binds [2].

B4: biotinylated Fab A9 (Fab, V domains shown)
VH: EVQLVQSGAEVRNPGASVKVSCKASGYTFTSHGINWLRQAPGQGLEWMGWISAYSGNTNYAQNLQDRVSMTTDTSTSTAYMELRSLRSDDTAVYYCARDFGKWDLPMYGMDVWGQGTTVTVSS
VL: QSVLTQPPSVSAAPGQRVTISCSGSSSDIGKSGKNYVAWYQQLPGMAPKLLIHDTIKRPSGIPDRFSASKSGTSATLDITGLQTGDEGDYYCGTWNNNLSAYVFGTGTTITVL
notes: as for B1
B4: binds [1].

B5: Fab A6 (Fab, V domains shown)
VH: EVQLVQSGAEVKKPGASVKVSCKASGYTFTSYYMHWVRQSPGQGLEWMGIINPSGGSTSYAQKFQGRVTMTRDTSTSTVYMELSSLRSEDTAVYYCARNGYCSSTSCYDAFDIWGQGTMVTVSS
VL: QSALTQPASVSGSPGQSITISCTGTSSDVGGYNYVSWYQQHPGKAPKVLIYDVNQRISGVPDRFSGSKSGNTASLTISGLQAEDEADYYCCSYAGSSSWVFGGGTRLTVL
notes: as for B2
B5: binds [3].

B6: Fab A6 tetramer (Fab, V domains shown)
VH: EVQLVQSGAEVKKPGASVKVSCKASGYTFTSYYMHWVRQSPGQGLEWMGIINPSGGSTSYAQKFQGRVTMTRDTSTSTVYMELSSLRSEDTAVYYCARNGYCSSTSCYDAFDIWGQGTMVTVSS
VL: QSALTQPASVSGSPGQSITISCTGTSSDVGGYNYVSWYQQHPGKAPKVLIYDVNQRISGVPDRFSGSKSGNTASLTISGLQAEDEADYYCCSYAGSSSWVFGGGTRLTVL
notes: copies: 4 + 4
B6: binds [4].

B7: biotinylated Fab A6 (Fab, V domains shown)
VH: EVQLVQSGAEVKKPGASVKVSCKASGYTFTSYYMHWVRQSPGQGLEWMGIINPSGGSTSYAQKFQGRVTMTRDTSTSTVYMELSSLRSEDTAVYYCARNGYCSSTSCYDAFDIWGQGTMVTVSS
VL: QSALTQPASVSGSPGQSITISCTGTSSDVGGYNYVSWYQQHPGKAPKVLIYDVNQRISGVPDRFSGSKSGNTASLTISGLQAEDEADYYCCSYAGSSSWVFGGGTRLTVL
notes: as for B1
B7: binds [4].

B8: C1-ETA´ immunotoxin (HLA A*0201-restricted, HCMV-specific Fab antibody C1 coupled to Pseudomonas Exotoxin A) (Fab, V domains shown)
VH: EVQLVQSGAEVKKPGSSVKVSCKASGGTFSSYAISWVRQAPGQGLEWMGGIIPIFGTANYAQKFQGRVTITADESTSTAYMELSSLRSEDTAVYYCARGLAAPDYFDYWGQGTLVTVSS
VL: QSVVTQPPSVSGAPGQRVTISCTGSSSNIGAGYDVHWYQQLPGTAPKLLIYGNSNRPSGVPDRFSGSKSGTSASLAITGLQAEDEADYYCQSYDSSLSGPFYVFGTGTKVTVL
notes: source: E. coli TG1
B8: binds [5]; no binding (tested: 50 µg/ml) [6].

B9: biotinylated Fab F3 (Fab, V domains shown)
VH: QVQLVQSGAEVKKPGASVKVSCKASGYTFTSYYMHWVRQAPGQGLEWMGIINPSGGSTSYAQKFQGRVTMTRDTSTSTVYMELSSLRSEDTAVYYCASGITGAHDYWGQGTLVTVSS
VL: QSVVTQPPSVSGAPGQRVTISCTGSSSNIGAGYDVHWYQQLPGTAPKLLIYENSIRPSGVPDRFSGSKSGTAASLAITGLQAEDEAEYYCQSYDNSLSGPNWVFGGGTKLTVL
notes: as for B1
B9: binds [4].

B10: Fab C1 tetramer (Fab, V domains shown)
VH: EVQLVQSGAEVKKPGSSVKVSCKASGGTFSSYAISWVRQAPGQGLEWMGGIIPIFGTANYAQKFQGRVTITADESTSTAYMELSSLRSEDTAVYYCARGLAAPDYFDYWGQGTLVTVSS
VL: QSVVTQPPSVSGAPGQRVTISCTGSSSNIGAGYDVHWYQQLPGTAPKLLIYGNSNRPSGVPDRFSGSKSGTSASLAITGLQAEDEADYYCQSYDSSLSGPFYVFGTGTKVTVL
notes: copies: 4 + 4
B10: binds [1].

B11: Fab F3 (Fab, V domains shown)
VH: QVQLVQSGAEVKKPGASVKVSCKASGYTFTSYYMHWVRQAPGQGLEWMGIINPSGGSTSYAQKFQGRVTMTRDTSTSTVYMELSSLRSEDTAVYYCASGITGAHDYWGQGTLVTVSS
VL: QSVVTQPPSVSGAPGQRVTISCTGSSSNIGAGYDVHWYQQLPGTAPKLLIYENSIRPSGVPDRFSGSKSGTAASLAITGLQAEDEAEYYCQSYDNSLSGPNWVFGGGTKLTVL
notes: as for B2
B11: binds [3].

B12: Fab C1 (Fab, V domains shown)
VH: EVQLVQSGAEVKKPGSSVKVSCKASGGTFSSYAISWVRQAPGQGLEWMGGIIPIFGTANYAQKFQGRVTITADESTSTAYMELSSLRSEDTAVYYCARGLAAPDYFDYWGQGTLVTVSS
VL: QSVVTQPPSVSGAPGQRVTISCTGSSSNIGAGYDVHWYQQLPGTAPKLLIYGNSNRPSGVPDRFSGSKSGTSASLAITGLQAEDEADYYCQSYDSSLSGPFYVFGTGTKVTVL
notes: as for B2
B12: binds [2].

B13: biotinylated Fab C1 (Fab, V domains shown)
VH: EVQLVQSGAEVKKPGSSVKVSCKASGGTFSSYAISWVRQAPGQGLEWMGGIIPIFGTANYAQKFQGRVTITADESTSTAYMELSSLRSEDTAVYYCARGLAAPDYFDYWGQGTLVTVSS
VL: QSVVTQPPSVSGAPGQRVTISCTGSSSNIGAGYDVHWYQQLPGTAPKLLIYGNSNRPSGVPDRFSGSKSGTSASLAITGLQAEDEADYYCQSYDSSLSGPFYVFGTGTKVTVL
notes: as for B1
B13: binds [1].

B14: Fab F3 tetramer (Fab, V domains shown)
VH: QVQLVQSGAEVKKPGASVKVSCKASGYTFTSYYMHWVRQAPGQGLEWMGIINPSGGSTSYAQKFQGRVTMTRDTSTSTVYMELSSLRSEDTAVYYCASGITGAHDYWGQGTLVTVSS
VL: QSVVTQPPSVSGAPGQRVTISCTGSSSNIGAGYDVHWYQQLPGTAPKLLIYENSIRPSGVPDRFSGSKSGTAASLAITGLQAEDEAEYYCQSYDNSLSGPNWVFGGGTKLTVL
notes: copies: 4 + 4
B14: binds [4].

B15: biotinylated Fab D10 (Fab, V domains shown)
VH: EVQLVQSGGGVVQPGRSLRLSCAASGFTFSSYGMHWVRQAPGKGLEWVAVISYDGTNTDYADSVKGRFTISRDNSKNTLYLQMNSLRAEDTAVYYCARARGIGVSGTLYFDFWGQGTLVTVSS
VL: EIVMTQSPGTLSLSPGERATLSCRASQSVSSSYLAWYQQKPGQAPRLLIYGASTRATGIPDRFSGSGSGTDFTLTINRLEPEDFAVYYCQQYGSSPGTFGQGTRLEIK
notes: as for B1
B15: binds [7].

B16: Fab D10 (Fab, V domains shown)
VH: EVQLVQSGGGVVQPGRSLRLSCAASGFTFSSYGMHWVRQAPGKGLEWVAVISYDGTNTDYADSVKGRFTISRDNSKNTLYLQMNSLRAEDTAVYYCARARGIGVSGTLYFDFWGQGTLVTVSS
VL: EIVMTQSPGTLSLSPGERATLSCRASQSVSSSYLAWYQQKPGQAPRLLIYGASTRATGIPDRFSGSGSGTDFTLTINRLEPEDFAVYYCQQYGSSPGTFGQGTRLEIK
notes: as for B2
B16: binds [8].

B17: biotinylated Fab C7 (Fab, V domains shown)
VH: EVQLVQSGAEVKKPGASVKVSCKASGYTFTSYYMHWVRQAPGQGLEWMGIINPSDGSTSYAQKFQGRVTMTRDTSTSTAYMELSSLRSEDTAVYYCARYIGIMDVWGQGTTVTVSS
VL: not shown
notes: as for B1
B17: binds [7].

B18: Fab C7 tetramer (Fab, V domains shown)
VH: EVQLVQSGAEVKKPGASVKVSCKASGYTFTSYYMHWVRQAPGQGLEWMGIINPSDGSTSYAQKFQGRVTMTRDTSTSTAYMELSSLRSEDTAVYYCARYIGIMDVWGQGTTVTVSS
VL: not shown
notes: copies: 4 + 4
B18: binds [7].

B19: Fab C7 (Fab, V domains shown)
VH: EVQLVQSGAEVKKPGASVKVSCKASGYTFTSYYMHWVRQAPGQGLEWMGIINPSDGSTSYAQKFQGRVTMTRDTSTSTAYMELSSLRSEDTAVYYCARYIGIMDVWGQGTTVTVSS
VL: not shown
notes: as for B2
B19: binds [8].

B20: Fab C5 (Fab, V domains shown)
VH: EVQLVQSGAEVKRPGASVKVSCKASGYTFTNYDINWVRQATGQGLEWMGWMNPNSGNTGYAQKFQGRVTITADKSTSTAYMELSSLRSEDTAVYYCARQGRLRFLEWYMFDPWGQGTLVTVSS
VL: DVVMTQSPLSLPVTPGEPASISCRSSQSLLHSNGYNYLDWYLQKPGQSPQLLIYLGSIRASGVPDRVTGSGSGTDFTLQISRVEAEDVGVYYCMQGLQTPYTFGQGTKLEIK
notes: as for B2
B20: binds [9].
